Assay results taken from patent US10577406B2, “FKBP-L polypeptides and uses in angiogenesis-mediated disorders” (ALMAC DISCOVERY LIMITED, priority 2006, dated 2020).
Read-outs that look alike come from different tables or passages of the source.

Columns and labels:
HMEC-1 = format: cell-based, Human
Protocol: (§1) The in vitro tubule formation assay used in these studies is a modified version of the method described by Ashton et al (1999). In brief, assays were conducted using BD BioCoat™ Matrigel™ Matrix Thin Layer 24-well Multiwell Plates (BD Discovery Labware, Oxford, UK). The Matrigel™ was rehydrated with 500 μl MCDB-131 serum free medium and incubated at 37° C. for 30 minutes. Excess medium was removed and HMEC-1 were seeded at a density of 1×10^5 and the plates incubated at 37° C. under 5% CO2/95% air for 1 hour.
(§2) Increasing concentrations of the recombinant FKBP-L protein (SEQ ID NO: 1) were added to each individual well in triplicate (250-1000 ngml^−1) and the plate was incubated for a further 18 hours. The degree of tubule formation between adjacent HMEC-1 cells was assessed in each well in five fields of view, by counting the number of cell to cell contacts between different HMEC-1 cells in the designated area. An independent investigator assessed each well and the FKBP-L treated wells were compared to sham treated controls.
as §1, with “al.” for “al”, “min.” for “minutes.”, “h. Increasing concentrations of FKBP-L 24mer (SEQ ID NO: 10) and 1-57mer (SEQ ID NO: 6) from 10^−14-10^−6 M were used.” for “hour.”
as §2, with “The” for “Increasing concentrations of the recombinant FKBP-L protein (SEQ ID NO: 1) were added to each individual well in triplicate (250-1000 ngml^−1) and the”, “h.” for “hours.”

rat aortic ring = format: cell-based, Male Wistar rats
Protocol: Male Wistar rats were euthanised and the thoracic aorta was aseptically removed and sectioned into 1 cm thick rings. The rings were washed ten times in sterile medium to remove any bacteria and embedded into Matrigel on 24 well plates. The wells were supplemented with 2 ml of medium and increasing concentrations of full-length His-tagged recombinant FKBP-L protein (SEQ ID 1). The plate was incubated for 8 days and post incubation the Matrigel and rings were fixed in 4% PBS buffered paraformaldehyde and stored in PBS. The extent of vessel development was blindly assessed microscopically by an independent investigator and quantified using a calibrated eyepiece graticule (1 mm/100 μm graduation) at 20× magnification (Olympus BX 50). The extent of vessel length, maximum vessel length and number of vessels in each field of view was measured and compared to time matched sham controls and the percent (%) inhibition calculated. Male Wistar rats were euthanised and the thoracic aorta was aseptically removed and sectioned into 1 cm thick rings. The rings were washed ten times in sterile medium to remove any bacteria and embedded into Matrigel on 24 well plates. The wells were supplemented with 2 ml of medium and increasing concentrations of FKBP-L 24mer (SEQ ID NO: 10) and FKBP-L 1-57mer (SEQ ID NO: 6) and recombinant FKBP-L (SEQ ID NO:1). The plate was blindly assessed by an independent investigator and quantified using a calibrated eyepiece graticule (1 mm/100 μm graduation) at 20× magnification (Olympus BX 50). The extent of vessel length, maximum vessel length and number of vessels in each field of view was measured and compared to time matched sham controls and the % inhibition calculated. In order to determine whether the FKBP-L 24mer exerted a permanent or static effect on endothelial cell sprouting the rat aortic ring assay was used. Male Wistar rats were euthanised and the thoracic aorta was aseptically removed and sectioned into 1 cm thick rings. The rings were washed ten times in sterile medium to remove any bacteria and embedded into Matrigel on 24 well plates. The wells were supplemented with 2 ml of medium. The plates were incubated for up to 15 days. Each day the Matrigel rings were photographed and returned to their incubator. Two further experiments were carried out: (A) addition of FKBP-L 24mer to the medium after the vessels had grown for seven days; and (B) addition of FKBP-L 24mer to the medium at the initial embedding stage, with subsequent removal after seven days and replacement with fresh medium for a further seven days. The extent of vessel development was quantified using a calibrated eyepiece graticule (1 mm/100 μm graduation) at 20× magnification (Olympus BX 50), and measured electronically using Lucia imaging software. Vessel length was measured and compared to time matched sham controls and the percent (%) inhibition calculated.

## H-QIRQQPRDPPTETLELEVSPDPAS-OH [FKBP-L 24mer]
HMEC-1; 18 h
  EC50: 0.03 nM
Rat aortic ring
  IC50: 0.0002 nM
Rat aortic ring; 10^−9 M added after vessels had developed for seven days, vs time matched controls
  vessel development after addition at day seven: complete inhibition of vessel development
Rat aortic ring; medium supplemented from embedding, seven days
  vessel development, exposure from initial embedding: almost completely inhibited vessel development
Rat aortic ring; supplemented medium removed after seven days, fresh medium added
  vessel development after removal of the peptide: continued growth of vessels

B1: full length recombinant FKBP-L: recombinant full length his-tagged FKBP-L protein (SEQ ID NO: 1) expressed in BL21 (DE3) (protein, listed as Homo sapiens)
chain: MRGSHHHHHHGMASMTGGQQMGRDLYDDDDKDRWGSMETPPVNTIGEKDTSQPQQEWEKNLRENLDSVIQIRQQPRDPPTETLELEVSPDPASQILEHTQGAEKLVAELEGDSHKSHGSTSQMPEALQASDLWYCPDGSFVKKIVIRGHGLDKPKLGSCCRVLALGFPFGSGPPEGWTELTMGVGPWREETWGELIEKCLESMCQGEEAELQLPGHTGPPVGLTLASFTQGRDSWELETSEKEALAREERARGTELFRAGNPEGAARCYGRALRLLLTLPPPGPPERTVLHANLAACQLLLGQPQLAAQSCDRVLEREPGHLKALYRRGVAQAALGNLEKATADLKKVLAIDPKNRAAQEELGKVVIQGKNQDAGLAQGLRKMFG
modifications: His tag
HMEC-1; 250-1000 ngml^−1, 18 hours
  optimum concentration for inhibition of cell to cell contacts or tubules: 750 ngml^−1
HMEC-1; 750 ngml^−1, 18 hours
  efficacy (inhibition of cell to cell contacts) at optimum concentration: 80%
HMEC-1; 18 hours
  EC50 potency, tube formation: 314 ngml^−1
Rat aortic ring; 500 ngml^−1 (optimal), 8 days
  inhibition of number of vessels formed: 65%
Rat aortic ring; 1000 ngml^−1, 8 days
  inhibition of maximum vessel length compared to time matched controls: 70%
  inhibition of mean vessel length compared to time matched controls: 63%
Rat aortic ring; read-out: IC50, number of vessels
  IC50: 1.56 nM
